{
  "source": "patent US20140087995A1",
  "about": "(published 2014)",
  "binders": {"B1": {"name": "N^ε1-[2-[2-[2-[[2-[2-[2-[[(4S)-4-carboxy-4-(19-carboxynonadecanoylamino)butanoyl]amino]ethoxy]ethoxy]acetyl]amino]ethoxy]ethoxy]acetyl]-[Arg17,Pro21,Pro27,His34 … (peptide)", "peptide": "K([AEEA-AEEA-γGlu-C20 diacid])CNTATCATQRLANFLRHSSPNFGAIPSSTNVGHNTY-NH2", "modifications": "disulfide 2-7; N-terminus assumed", "SMILES": "CC[C@H](C)[C@H](NC(=O)[C@H](C)NC(=O)CNC(=O)[C@H](Cc1ccccc1)NC(=O)[C@H](CC(N)=O)NC(=O)[C@@H]1CCCN1C(=O)[C@H](CO)NC(=O)[C@H](CO)NC(=O)[C@H](Cc1c[nH]cn1)NC(=O)[C@H](CCCNC(=N)N)NC(=O)[C@H](CC(C)C)NC(=O)[C@H](Cc1ccccc1)NC(=O)[C@H](CC(N)=O)NC(=O)[C@H](C)NC(=O)[C@H](CC(C)C)NC(=O)[C@H](CCCNC(=N)N)NC(=O)[C@H](CCC(N)=O)NC(=O)[C@@H](NC(=O)[C@H](C)NC(=O)[C@@H]1CSSC[C@H](NC(=O)[C@@H](N)CCCCNC(=O)COCCOCCNC(=O)COCCOCCNC(=O)CC[C@H](NC(=O)CCCCCCCCCCCCCCCCCCC(=O)O)C(=O)O)C(=O)N[C@@H](CC(N)=O)C(=O)N[C@@H]([C@@H](C)O)C(=O)N[C@@H](C)C(=O)N[C@@H]([C@@H](C)O)C(=O)N1)[C@@H](C)O)C(=O)N1CCC[C@H]1C(=O)N[C@@H](CO)C(=O)N[C@@H](CO)C(=O)N[C@H](C(=O)N[C@@H](CC(N)=O)C(=O)N[C@H](C(=O)NCC(=O)N[C@@H](Cc1c[nH]cn1)C(=O)N[C@@H](CC(N)=O)C(=O)N[C@H](C(=O)N[C@@H](Cc1ccc(O)cc1)C(N)=O)[C@@H](C)O)C(C)C)[C@@H](C)O", "notes": "synthetic peptide amide; also called compound 97"}, "B2": {"name": "N^ε1-[2-[2-[2-[[2-[2-[2-[[(4S)-4-carboxy-4-(19-carboxynonadecanoylamino)butanoyl]amino]ethoxy]ethoxy]acetyl]amino]ethoxy]ethoxy]acetyl]-[Arg17,Pro21,Pro27,Pro34 … (peptide)", "peptide": "K([AEEA-AEEA-γGlu-C20 diacid])CNTATCATQRLANFLRHSSPNFGAIPSSTNVGPNTY-NH2", "modifications": "disulfide 2-7; N-terminus assumed", "SMILES": "CC[C@H](C)[C@H](NC(=O)[C@H](C)NC(=O)CNC(=O)[C@H](Cc1ccccc1)NC(=O)[C@H](CC(N)=O)NC(=O)[C@@H]1CCCN1C(=O)[C@H](CO)NC(=O)[C@H](CO)NC(=O)[C@H](Cc1c[nH]cn1)NC(=O)[C@H](CCCNC(=N)N)NC(=O)[C@H](CC(C)C)NC(=O)[C@H](Cc1ccccc1)NC(=O)[C@H](CC(N)=O)NC(=O)[C@H](C)NC(=O)[C@H](CC(C)C)NC(=O)[C@H](CCCNC(=N)N)NC(=O)[C@H](CCC(N)=O)NC(=O)[C@@H](NC(=O)[C@H](C)NC(=O)[C@@H]1CSSC[C@H](NC(=O)[C@@H](N)CCCCNC(=O)COCCOCCNC(=O)COCCOCCNC(=O)CC[C@H](NC(=O)CCCCCCCCCCCCCCCCCCC(=O)O)C(=O)O)C(=O)N[C@@H](CC(N)=O)C(=O)N[C@@H]([C@@H](C)O)C(=O)N[C@@H](C)C(=O)N[C@@H]([C@@H](C)O)C(=O)N1)[C@@H](C)O)C(=O)N1CCC[C@H]1C(=O)N[C@@H](CO)C(=O)N[C@@H](CO)C(=O)N[C@H](C(=O)N[C@@H](CC(N)=O)C(=O)N[C@H](C(=O)NCC(=O)N1CCC[C@H]1C(=O)N[C@@H](CC(N)=O)C(=O)N[C@H](C(=O)N[C@@H](Cc1ccc(O)cc1)C(N)=O)[C@@H](C)O)C(C)C)[C@@H](C)O", "notes": "synthetic peptide amide; also called compound 98"}, "B3": {"name": "N^ε1-[(4S)-4-carboxy-4-(13-carboxytridecanoylamino)butanoyl]-[Arg17,Pro21,Pro27,His34]-h-amylin (peptide)", "peptide": "K([γGlu-C14 diacid])CNTATCATQRLANFLRHSSPNFGAIPSSTNVGHNTY-NH2", "modifications": "disulfide 2-7; N-terminus assumed", "SMILES": "CC[C@H](C)[C@H](NC(=O)[C@H](C)NC(=O)CNC(=O)[C@H](Cc1ccccc1)NC(=O)[C@H](CC(N)=O)NC(=O)[C@@H]1CCCN1C(=O)[C@H](CO)NC(=O)[C@H](CO)NC(=O)[C@H](Cc1c[nH]cn1)NC(=O)[C@H](CCCNC(=N)N)NC(=O)[C@H](CC(C)C)NC(=O)[C@H](Cc1ccccc1)NC(=O)[C@H](CC(N)=O)NC(=O)[C@H](C)NC(=O)[C@H](CC(C)C)NC(=O)[C@H](CCCNC(=N)N)NC(=O)[C@H](CCC(N)=O)NC(=O)[C@@H](NC(=O)[C@H](C)NC(=O)[C@@H]1CSSC[C@H](NC(=O)[C@@H](N)CCCCNC(=O)CC[C@H](NC(=O)CCCCCCCCCCCCC(=O)O)C(=O)O)C(=O)N[C@@H](CC(N)=O)C(=O)N[C@@H]([C@@H](C)O)C(=O)N[C@@H](C)C(=O)N[C@@H]([C@@H](C)O)C(=O)N1)[C@@H](C)O)C(=O)N1CCC[C@H]1C(=O)N[C@@H](CO)C(=O)N[C@@H](CO)C(=O)N[C@H](C(=O)N[C@@H](CC(N)=O)C(=O)N[C@H](C(=O)NCC(=O)N[C@@H](Cc1c[nH]cn1)C(=O)N[C@@H](CC(N)=O)C(=O)N[C@H](C(=O)N[C@@H](Cc1ccc(O)cc1)C(N)=O)[C@@H](C)O)C(C)C)[C@@H](C)O", "notes": "synthetic peptide amide"}, "B4": {"name": "N^ε1-[(4S)-4-carboxy-4-(19-carboxynonadecanoylamino)butanoyl]-[Asp14,Arg17,Pro21,Pro27,Pro34,Arg35]-h-amylin (peptide)", "peptide": "K([γGlu-C20 diacid])CNTATCATQRLADFLRHSSPNFGAIPSSTNVGPRTY-NH2", "modifications": "disulfide 2-7; N-terminus assumed", "SMILES": "CC[C@H](C)[C@H](NC(=O)[C@H](C)NC(=O)CNC(=O)[C@H](Cc1ccccc1)NC(=O)[C@H](CC(N)=O)NC(=O)[C@@H]1CCCN1C(=O)[C@H](CO)NC(=O)[C@H](CO)NC(=O)[C@H](Cc1c[nH]cn1)NC(=O)[C@H](CCCNC(=N)N)NC(=O)[C@H](CC(C)C)NC(=O)[C@H](Cc1ccccc1)NC(=O)[C@H](CC(=O)O)NC(=O)[C@H](C)NC(=O)[C@H](CC(C)C)NC(=O)[C@H](CCCNC(=N)N)NC(=O)[C@H](CCC(N)=O)NC(=O)[C@@H](NC(=O)[C@H](C)NC(=O)[C@@H]1CSSC[C@H](NC(=O)[C@@H](N)CCCCNC(=O)CC[C@H](NC(=O)CCCCCCCCCCCCCCCCCCC(=O)O)C(=O)O)C(=O)N[C@@H](CC(N)=O)C(=O)N[C@@H]([C@@H](C)O)C(=O)N[C@@H](C)C(=O)N[C@@H]([C@@H](C)O)C(=O)N1)[C@@H](C)O)C(=O)N1CCC[C@H]1C(=O)N[C@@H](CO)C(=O)N[C@@H](CO)C(=O)N[C@H](C(=O)N[C@@H](CC(N)=O)C(=O)N[C@H](C(=O)NCC(=O)N1CCC[C@H]1C(=O)N[C@@H](CCCNC(=N)N)C(=O)N[C@H](C(=O)N[C@@H](Cc1ccc(O)cc1)C(N)=O)[C@@H](C)O)C(C)C)[C@@H](C)O", "notes": "synthetic peptide amide"}, "B5": {"name": "N^ε1-[(4S)-4-carboxy-4-(15-carboxypentadecanoylamino)butanoyl]-[Arg17,Pro21,Pro27,His34]-h-amylin (peptide)", "peptide": "K([γGlu-C16 diacid])CNTATCATQRLANFLRHSSPNFGAIPSSTNVGHNTY-NH2", "modifications": "disulfide 2-7; N-terminus assumed", "SMILES": "CC[C@H](C)[C@H](NC(=O)[C@H](C)NC(=O)CNC(=O)[C@H](Cc1ccccc1)NC(=O)[C@H](CC(N)=O)NC(=O)[C@@H]1CCCN1C(=O)[C@H](CO)NC(=O)[C@H](CO)NC(=O)[C@H](Cc1c[nH]cn1)NC(=O)[C@H](CCCNC(=N)N)NC(=O)[C@H](CC(C)C)NC(=O)[C@H](Cc1ccccc1)NC(=O)[C@H](CC(N)=O)NC(=O)[C@H](C)NC(=O)[C@H](CC(C)C)NC(=O)[C@H](CCCNC(=N)N)NC(=O)[C@H](CCC(N)=O)NC(=O)[C@@H](NC(=O)[C@H](C)NC(=O)[C@@H]1CSSC[C@H](NC(=O)[C@@H](N)CCCCNC(=O)CC[C@H](NC(=O)CCCCCCCCCCCCCCC(=O)O)C(=O)O)C(=O)N[C@@H](CC(N)=O)C(=O)N[C@@H]([C@@H](C)O)C(=O)N[C@@H](C)C(=O)N[C@@H]([C@@H](C)O)C(=O)N1)[C@@H](C)O)C(=O)N1CCC[C@H]1C(=O)N[C@@H](CO)C(=O)N[C@@H](CO)C(=O)N[C@H](C(=O)N[C@@H](CC(N)=O)C(=O)N[C@H](C(=O)NCC(=O)N[C@@H](Cc1c[nH]cn1)C(=O)N[C@@H](CC(N)=O)C(=O)N[C@H](C(=O)N[C@@H](Cc1ccc(O)cc1)C(N)=O)[C@@H](C)O)C(C)C)[C@@H](C)O", "notes": "synthetic peptide amide"}, "B6": {"name": "N^ε1-[(4S)-4-carboxy-4-(17-carboxyheptadecanoylamino)butanoyl]-[Arg17,Pro21,Pro27,His34]-h-amylin (peptide)", "peptide": "K([γGlu-C18 diacid])CNTATCATQRLANFLRHSSPNFGAIPSSTNVGHNTY-NH2", "modifications": "disulfide 2-7; N-terminus assumed", "SMILES": "CC[C@H](C)[C@H](NC(=O)[C@H](C)NC(=O)CNC(=O)[C@H](Cc1ccccc1)NC(=O)[C@H](CC(N)=O)NC(=O)[C@@H]1CCCN1C(=O)[C@H](CO)NC(=O)[C@H](CO)NC(=O)[C@H](Cc1c[nH]cn1)NC(=O)[C@H](CCCNC(=N)N)NC(=O)[C@H](CC(C)C)NC(=O)[C@H](Cc1ccccc1)NC(=O)[C@H](CC(N)=O)NC(=O)[C@H](C)NC(=O)[C@H](CC(C)C)NC(=O)[C@H](CCCNC(=N)N)NC(=O)[C@H](CCC(N)=O)NC(=O)[C@@H](NC(=O)[C@H](C)NC(=O)[C@@H]1CSSC[C@H](NC(=O)[C@@H](N)CCCCNC(=O)CC[C@H](NC(=O)CCCCCCCCCCCCCCCCC(=O)O)C(=O)O)C(=O)N[C@@H](CC(N)=O)C(=O)N[C@@H]([C@@H](C)O)C(=O)N[C@@H](C)C(=O)N[C@@H]([C@@H](C)O)C(=O)N1)[C@@H](C)O)C(=O)N1CCC[C@H]1C(=O)N[C@@H](CO)C(=O)N[C@@H](CO)C(=O)N[C@H](C(=O)N[C@@H](CC(N)=O)C(=O)N[C@H](C(=O)NCC(=O)N[C@@H](Cc1c[nH]cn1)C(=O)N[C@@H](CC(N)=O)C(=O)N[C@H](C(=O)N[C@@H](Cc1ccc(O)cc1)C(N)=O)[C@@H](C)O)C(C)C)[C@@H](C)O", "notes": "synthetic peptide amide"}},
  "note": "Numbered stars: 1 amine (or outer) side, 2 acyl side, 3 side chain; on linkers, the order of the positions; unused ones are H or OH. Bridge positions count the residues as written; N and C are the ends. Side chains are listed from the residue outwards. Ends that are not written are not given here. * marks the point of attachment. C20 diacid = O=C(O)CCCCCCCCCCCCCCCCCCC(=O)*; C18 diacid = O=C(O)CCCCCCCCCCCCCCCCC(=O)*; C16 diacid = O=C(O)CCCCCCCCCCCCCCC(=O)*; γGlu = O=C(O)[C@H](CCC(=O)[*:2])N[*:1]; C14 diacid = O=C(O)CCCCCCCCCCCCC(=O)*; AEEA = NCCOCCOCC(=O)O",
  "data": [
    {"biological_target": "T1, human calcitonin receptor (human, UniProt P30988 25-474)", "T1 sequence (looked up)": "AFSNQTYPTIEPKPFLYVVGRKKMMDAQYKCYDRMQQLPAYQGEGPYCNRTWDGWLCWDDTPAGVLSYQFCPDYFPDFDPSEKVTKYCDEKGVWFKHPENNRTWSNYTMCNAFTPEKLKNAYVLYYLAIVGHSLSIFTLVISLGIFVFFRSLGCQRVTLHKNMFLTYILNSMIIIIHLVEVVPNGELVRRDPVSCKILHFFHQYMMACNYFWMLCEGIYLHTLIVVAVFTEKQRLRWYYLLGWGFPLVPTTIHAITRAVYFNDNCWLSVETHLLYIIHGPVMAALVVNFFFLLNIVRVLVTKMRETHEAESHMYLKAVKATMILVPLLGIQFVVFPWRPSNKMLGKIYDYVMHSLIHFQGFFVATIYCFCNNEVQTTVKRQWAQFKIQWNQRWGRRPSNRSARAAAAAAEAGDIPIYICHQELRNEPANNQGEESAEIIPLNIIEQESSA", "assay": "cell-based or functional assay", "units": {"hCTR funct. EC50 (pM)": "pM"}, "values": [
      {"binder": "B1", "hCTR funct. EC50 (pM)": 11800},
      {"binder": "B2", "hCTR funct. EC50 (pM)": 1630},
      {"binder": "B3", "hCTR funct. EC50 (pM)": 1090},
      {"binder": "B4", "hCTR funct. EC50 (pM)": 3640},
      {"binder": "B5", "hCTR funct. EC50 (pM)": 2210},
      {"binder": "B6", "hCTR funct. EC50 (pM)": 5850}
    ]}
  ]
}
